Changes are numbered by the printed parent chain.
B1: BCMA×CD3 κλ003 (bispecific antibody, human IgG4 S228P, kappa, lambda)
light 1: DIVLTQSPASLAVSPGQRATITCRASKSVSTSGYSYMHWYQKKPGQPPKLLIYLASNLESGVPARFSGSGSGTDFTLTINPVEAEDTANYYCQHSRELPWTFGQGTKVEIKRTVAAPSVFIFPPSDEQLKSGTASVVCLLNNFYPREAKVQWKVDNALQSGNSQESVTEQDSKDSTYSLSSTLTLSKADYEKHKVYACEVTHQGLSSPVTKSFNRGEC
heavy 1: QVQLVQSGSELKKPGASVKVSCKASGYIFTNFGMNWVREAPGQGLEWMGWINTYTGEQIYADGFTGRFVFSLDTSASTAYLQISSLKAEDTAVYFCARGEIYYGYDVGFVYWGQGTLVTVSSASTKGPSVFPLAPCSRSTSESTAALGCLVKDYFPEPVTVSWNSGALTSGVHTFPAVLQSSGLYSLSSVVTVPSSSLGTKTYTCNVDHKPSNTKVDKRVESKYGPPCPPCPAPEFEGGPSVFLFPPKPKDTLMISRTPEVTCVVVDVSQEDPEVQFNWYVDGVEVHNAKTKPREEQFNSTYRVVSVLTVLHQDWLNGKEYKCKVSNKGLASSIEKTISKAKGQPREPQVCTLPPSQEEMTKNQVSLSCAVKGFYPSDIAVEWESNGQPENNYKTTPPVLDSDGSFFLVSKLTVDKSRWQEGNVFSCSVMHEALHNHYTQKSLSLSLGK
light 2: QAVVTQEPSLTVSPGGTVTLTCRSSTGAVTTSNYANWVQEKPGQAPRGLIGGTNKRAPWTPARFSGSLLGGKAALTITGAQAEDEAEYYCVLWYSNLWVFGGGTKLTVLGQPKAAPSVTLFPPSSEELQANKATLVCLISDFYPGAVTVAWKADSSPVKAGVETTTPSKQSNNKYAASSYLSLTPEQWKSHRSYSCQVTHEGSTVEKTVAPTECS
heavy 2: EVQLVESGGGLVQPGGSLRLSCAASGFTFNTYAMNWVRKAPGKGLEWVGRIRSKYNNYATYYADSVKDRFTISRDDSKNSLYLQMNSLKTEDTAVYYCVRHGNFGNSYVSWFAYWGQGTLVTVSSASTKGPSVFPLAPCSRSTSESTAALGCLVKDYFPEPVTVSWNSGALTSGVHTFPAVLQSSGLYSLSSVVTVPSSSLGTKTYTCNVDHKPSNTKVDKRVESKYGPPCPPCPAPEFEGGPSVFLFPPKPKDTLMISRTPEVTCVVVDVSQEDPEVQFNWYVDGVEVHNAKTKPREEQFNSTYRVVSVLTVLHQDWLNGKEYKCKVSNKGLASSIEKTISKAKGQPREPQVYTLPPCQEEMTKNQVSLWCLVKGFYPSDIAVEWESNGQPENNYKTTPPVLDSDGSFFLYSKLTVDKSRWQEGNVFSCSVMHEALHNHYTQKSLSLSLGK
B2: BCMA×CD3 κλ004 (bispecific antibody, human IgG4 S228P, kappa, lambda)
light 1: B1 light 1 with S30T, M37I, N57D, S60A
heavy 1: B1 heavy 1
light 2: B1 light 2
heavy 2: B1 heavy 2
B3: BCMA×CD3 κλ005 (bispecific antibody, human IgG4 S228P, kappa, lambda)
light 1: B1 light 1
heavy 1: B1 heavy 1 with A76V
light 2: B1 light 2
heavy 2: B1 heavy 2
B4: BCMA×CD3 κλ006 (bispecific antibody, human IgG4 S228P, kappa, lambda)
light 1: B1 light 1 with S30T, M37I, N57D, S60A
heavy 1: B1 heavy 1 with A76V
light 2: B1 light 2
heavy 2: B1 heavy 2

These binders were tested against T1, human CD3 on T cells (Jurkat cells; human peripheral blood CD4+ and CD8+ T cells) (human, UniProt P07766 23-207) (assay: flow cytometry, Jurkat cells).
T1 construct: whole, on cells; also called CD3ε
T1 sequence (P07766 23-207): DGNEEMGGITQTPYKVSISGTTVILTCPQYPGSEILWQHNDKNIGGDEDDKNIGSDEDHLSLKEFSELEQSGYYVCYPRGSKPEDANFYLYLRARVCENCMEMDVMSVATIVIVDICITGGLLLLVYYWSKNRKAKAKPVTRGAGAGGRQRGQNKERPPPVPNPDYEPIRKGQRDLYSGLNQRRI
Method: Jurkat cells in the logarithmic growth phase were added with 200 μg/mL murine IgG (Jackson ImmunoResearch, 115-005-03) and incubated on ice for 30 min. […] 50 μL/well Alexa Fluro647 labeled goat anti-human IgG Fc (1:300 dilution) was added to the secondary antibody, incubated on ice for 20 min, 50 μL/well PI was added after washing once, incubated for 5 min, and flow cytometer (BD C6) was used to perform detection.
B1 showed an EC50 of 66 nM. With B2 the EC50 was 61 nM. In the case of B3, the EC50 is reported as 51 nM. B4 showed an EC50 of 56 nM.

Each binder was assayed against T2, human BCMA on cells (CHO-hBCMA clone 2C2; NCI-H929; RPMI-8226) (human, UniProt Q02223 1-184) (assay: flow cytometry, NCI-H929 cells).
T2 construct: whole, on cells; also called Human BCMA-CHO; CHO-hBCMA-2C2
T2 sequence (looked up): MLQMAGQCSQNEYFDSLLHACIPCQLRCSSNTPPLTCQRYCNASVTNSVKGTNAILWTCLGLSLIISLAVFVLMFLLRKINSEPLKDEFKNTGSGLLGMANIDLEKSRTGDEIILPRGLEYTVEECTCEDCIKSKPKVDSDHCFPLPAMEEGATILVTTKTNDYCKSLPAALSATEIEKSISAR
Method: (§1) The primary antibody was washed off, 50 μL/well Alexa Fluro647 labeled goat anti-human IgG Fc (1:300 dilution) was added, incubated on ice for 20 min, 50 μL/well PI was added after washing once, incubated for 5 min, and flow cytometer was used to perform detection.
B1 gave an EC50 of 34 nM. B2 gave an EC50 of 36 nM. In the case of B3, the EC50 is reported as 33 nM. Binder B4 has an EC50 of 32 nM.

The binders below were run against T2, human BCMA on cells (CHO-hBCMA clone …) (assay: flow cytometry, RPMI-8226 cells).
Method: as §1
B1 showed an EC50 of 34 nM. B2 showed an EC50 of 39 nM. B3 was tested, and the EC50 was 38 nM. B4 was tested, and the EC50 was 19 nM.

Each binder was assayed against T2, human BCMA on cells (CHO-hBCMA clone …) (assay: flow cytometry, CHO-human BCMA cells).
Method: (§2) 50 μL/well Alexa Fluro647 labeled goat anti-human IgG Fc (1:300 dilution) was added to the secondary antibody, incubated on ice for 20 min, 50 μL/well PI solution (1:300) was added after washing once, incubated for 5 min, and flow cytometer was used to perform detection.
Binder B1 has an EC50 of 16 nM. B2 gave an EC50 of 22 nM. With B3 the EC50 was 24 nM. B4 was tested, and the EC50 was 16 nM.

Each binder was assayed against T3, cynomolgus monkey BCMA on CHO cells (CHO-cynoBCMA clone 1A2) (cynomolgus monkey, UniProt A0A2K5UD97 1-183) (assay: flow cytometry, CHO-cynomolgus monkey BCMA cells).
T3 construct: whole, on cells; also called Cynomolgus monkey BCMA-CHO; CHO-cynoBCMA-1A2
T3 sequence (A0A2K5UD97 entry or part of it): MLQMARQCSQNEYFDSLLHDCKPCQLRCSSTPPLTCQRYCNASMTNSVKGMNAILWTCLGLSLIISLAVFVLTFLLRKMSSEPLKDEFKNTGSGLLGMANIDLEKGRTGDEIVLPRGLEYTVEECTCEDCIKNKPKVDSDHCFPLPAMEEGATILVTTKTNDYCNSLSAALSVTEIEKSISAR
Method: as §2
Binder B1 has an EC50 of 3 nM. B2 gave an EC50 of 3 nM. B3 was tested, and the EC50 was 3 nM. B4 gave an EC50 of 3 nM.

The binders below were run against T1, human CD3 on T cells (Jurkat cells; …) (assay: flow cytometry, peripheral blood CD4+ T cells (PBMC)).
Method: (§3) Fresh human or cynomolgus monkey peripheral blood was taken and PBMC was isolated by Ficoll-Paque Plu (GE, 17-1440-03). […] 50 μL/well Alexa Fluro647 labeled goat anti-human IgG Fc (1:300 dilution) was added to the secondary antibody, ice bath for 20 min, 50 μL/well PI was added after washing once, incubated for 5 min, and flow cytometer (BD C6) was used to perform detection.
B1 showed an EC50 of 87 nM. B2 gave an EC50 of 77 nM. Binder B3 has an EC50 of 66 nM. B4 showed an EC50 of 91 nM.

Each binder was assayed against T1, human CD3 on T cells (Jurkat cells; …) (assay: flow cytometry, peripheral blood CD8+ T cells (PBMC)).
Method: as §3
B1 showed an EC50 of 97 nM. Work on B2 yielded an EC50 of 84 nM. B3 was tested, and the EC50 was 60 nM. B4 was tested, and the EC50 was 93 nM.

The binders below were run against T4, human BCMA recombinant antigen (human, UniProt Q02223 1-53) (assay: SPR (Biacore T200), antigen amine-coupled to CM5, antibody as analyte, 1:1 model).
T4 construct: range 1-53; also called human BCMA recombinant protein
T4 sequence (looked up): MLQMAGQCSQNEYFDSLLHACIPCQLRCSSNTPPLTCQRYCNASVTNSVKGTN
Method: (§4) 10 μg/mL human or cynomolgus monkey BCMA or CD3εγ recombinant antigen was bound to a CM5 chip (GE healthcare) by amino coupling, controlling the amount of antigen bound to approximately 200 RU. After the baseline plateau, gradient-diluted antibodies (from 10 μg/mL, 2-fold dilutions for 7 gradients) flowed through the chip at a flow rate of 30 μL/min for a binding time of 350 seconds and a dissociation time of 600 seconds. Kinetic constants were fitted using Biacore T200 evaluation software with a 1:1 binding model.
Binder B1 has a Kd of 1.3 nM. Binder B2 has a Kd of 1 nM. In the case of B3, the Kd is reported as 1.1 nM. B4 showed a Kd of 1.2 nM.

The binders below were run against T5, cynomolgus monkey BCMA recombinant antigen (cynomolgus monkey, UniProt A0A2K5UD97 1-51) in the same assay as above.
T5 construct: range 1-52
T5 sequence (A0A2K5UD97 entry or part of it): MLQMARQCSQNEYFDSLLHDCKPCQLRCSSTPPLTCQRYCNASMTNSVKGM
Method: as §4
B1 gave a Kd of 0.16 nM. With B2 the Kd was 0.12 nM. Binder B3 has a Kd of 0.09 nM. Binder B4 has a Kd of 0.1 nM.

Target: T6, cynomolgus monkey CD3εγ-Fc heterodimer (cynomolgus monkey)
T6 chain 1: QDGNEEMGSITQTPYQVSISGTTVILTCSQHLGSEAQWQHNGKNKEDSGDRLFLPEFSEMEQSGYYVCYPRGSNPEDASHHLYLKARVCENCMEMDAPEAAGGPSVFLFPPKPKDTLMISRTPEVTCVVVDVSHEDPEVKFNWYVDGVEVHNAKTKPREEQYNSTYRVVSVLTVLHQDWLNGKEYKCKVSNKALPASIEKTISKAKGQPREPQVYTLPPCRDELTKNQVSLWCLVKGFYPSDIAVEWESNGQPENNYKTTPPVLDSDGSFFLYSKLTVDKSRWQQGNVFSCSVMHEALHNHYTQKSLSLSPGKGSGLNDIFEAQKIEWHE
T6 chain 2: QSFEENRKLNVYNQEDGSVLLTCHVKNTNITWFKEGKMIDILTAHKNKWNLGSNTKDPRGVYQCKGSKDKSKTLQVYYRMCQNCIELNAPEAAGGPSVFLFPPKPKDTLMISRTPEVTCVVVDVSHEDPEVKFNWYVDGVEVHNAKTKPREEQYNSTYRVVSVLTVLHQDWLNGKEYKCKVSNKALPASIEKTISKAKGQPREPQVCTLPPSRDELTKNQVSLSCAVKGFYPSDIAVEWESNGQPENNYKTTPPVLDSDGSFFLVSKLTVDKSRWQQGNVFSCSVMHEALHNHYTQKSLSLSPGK
Experiment: as above
Method: as §4
In the case of B1, the Kd is reported as 43 nM. With B2 the Kd was 43 nM. With B3 the Kd was 20 nM. With B4 the Kd was 33 nM.

What follows are binders tested against T4, human BCMA recombinant antigen (assay: competition ELISA, coated human BCMA, antibody varied, then biotinylated human APRIL at 240 ng/mL, SA-HRP).
Method: 1 μg/mL human BCMA recombinant antigen was prepared with pH 9.6 carbonic acid buffer, added to a maxisorp96-well plate, and coated overnight at 4° C. After blocking with 5% skim milk/PBS for 1 h at room temperature, 50 μL antibody per well (4-fold dilution from 30 μg/mL for a total of 10 gradients) was added and incubated for 30 min at room temperature. […] After 3 washes with 0.05% PBST (PBS+0.05% Tween-20) and PBS respectively, 100 μL of SA-HRP (diluted 1:8000) was added to each well and incubated at room temperature for 45 min. Washing 3 times with 0.05% PBST and PBS respectively, 100 μL TMB color-developing solution was added into each well, after 10 min, 50 μL concentrated sulfuric acid was added into each well to stop the reaction, read OD450 nm by a microplate reader, and perform three-parameter fitting curve using Graphpad software.
In the case of B1, the “IC50 (read off the curve)” value is reported as ~8 nM. B2 was tested, and the “IC50 (read off the curve)” value was ~5 nM. With B3 the “IC50 (read off the curve)” value was ~3 nM. For B4, the “IC50 (read off the curve)” value was ~2 nM.

Reference: patent US20250277045A1 (KEYMED BIOSCIENCES, published 2025)
